Results on 20 sequences are retold here after a protein production outcome set (Wang et al. 2014).

A short description of the data set: label from the status in PepcDB records.
Take “MQPTGNQIQQNQQQQQQLIMRVPKQEVSVSGAARRYVQQAPPNRPPRQNHQNGAIGGKKSSVTIQEVPNNAYLETLNKSGNNKVDDDKLPVFLIKLWNIVEDPNLQSIVHWDDSGASFHISDPYLFGRNVLPHFFKHNNMNSMVRQLNMYGFRKMTPLSQGGLTRTESDQDHLEFSHPCFVQGRPELLSQIKRKQSARTVEDKQVNEQTQQNLEVVMAEMRAMREKAKNMEDKMNKLTKENRDMWTQMGSMRQQHARQQQYFKKLLHFLVSVMQPGLSKRVAKRGVLEIDFCAANGTAGPNSKRARMNSEEGPYKDVCDLLESLQRETQEPFSRRFTNNEGPLISEVTDEFGNSPVGRGSAQDLFGDTFGAQSSRYSDGGATSSREQSPHPIISQPQSNSAGAHGANEQKPDDMYMGSGPLTHENIHRGISALKRDYQGASPASGGPSTSSSAPSGAGAGARMAQKRAAPYKNATRQMAQPQQDYSGGFVNNYSGFMPSDPSMIPYQPSHQYLQPHQKLMAIEDQHHPTTSTSSTNADPHQNLYSPTLGLSPSFDRQLSQELQEYFTGTDTSLESFRDLVSNHNWDDFGNNVPLDDDEEGSEDPLRQLALENAPETSNYDGAEDLLFDNEQQYPENGFDVPDPNYLPLADEEIFPHSPALRTPSPSDPNLV”: the protein production entry is recorded as “not failed”. As for “MQRANREHLEIISLEEISMLVSSDFDLPEVLQHVTAKVATQLKVSVCNIYLREGDEVVLAATHGFDPAFIGKIRIKIGDGITGSVARDGQYISLSRASQDPRYRYFPELQEEKYNSMLSFPIGDKKEVYGVINLNTTSIRSFHEDEIYFVSIIANLILTAIKLRQQVASSRKAAEA”, the entry is “not failed”; as for “MQRCLRIQVARRHKLRNGKILDLGQQPTAPLLSLYLSTAQSRVISNEEPASISWSCAEAGSALGLSSASGSAEEAEPWPGVRRGTEAGQYEFARAGEAAAAVRAAAAVAVARAGMRRYLRVVGLCLACGFCSLLYAFSQLAVSLEEGAAVGRRPQAAVASWLADGGRGTGRGAGSAGPGRTGRCKEVSLSYWNPYWMLPSDVCGVNCFWEAAFRYGLKTRPTEKMHLAVVACGDRLEETVTMLKSALIFSIKPLHVHIFAEDQLHDSFKDRLDSWSFLQRFNYSLYPITFPSDSAMEWKKLFKPCASQRLFLPLILKGVDSLLYVDTDVLFLRPVDDIWSLLERFNSTQIAAMAPEHEEPRVGWYNRFARHPYYGRTGVNSGVMLMNMTRMRRKYFKNDMTTARLQWGDILMPLLKKYKLNITWGDQDLLNIMFYHNPESLFVFPCQWNYRPDHCIYGSNCREAEEEGVFILHGNRGVYHDDKQPAFRAMYEALRNCSLEDDSVRSLLKPLELELQKTVHTYCGKTYKIFIKQLAKSIRNRYDTPPKER”, “failed”; as for “MQRFALIGAGFIGGVHGDNLAAHPDVDLALVFDIDLARATDLAKRHGSRATTDLAEVFDPTAIDAVFIASSSNTHAEHLRAAATAGIPALCEKPIDLDLAHAVDIVRFAETRSLRAMVDFNRRFDRDYAELQRVVASGEIGSVELIQMTSRGPAMPPLEYIAVSGGQMRDQTVHFFDLARWISGLDPESVFATGSTLAEPRLAEYGDVDTSAVTLRLPGGALVQIDCTRRIGYGYDERIEVLGSTGMVEARRQRAGSVSRYSAGRVVDDGLHAGWFERIRGSYRTALDHFVDALENGAAIGPTLAEGLKAQAIAEAATRSLTSGRMEPIEYPA”, “failed”. As for “MQRTLDITQAMIDGYGRINGDNDIIHYDHDYAVQRGFRGTLLHGPHMTALAADLGARRYASDWLYRGKLHTKWIGPVCPGDTFVAALNEQGEIEAVSGGKTVMVGSASLAD”, the entry is “failed”.

As for “MQRVAQWAADVPEETLNLLELSQVAGVSLRQLQSAFKAFTGMAPSQWLRLRRLNSAHRELLSRGPTETTVAEVAMHWSFWHLGRFSSSYRALFKELPSQTLKRSAVARR”, the protein production result is reported as “failed”. As to “MQSAYSFLPQVIAHRGSSGQAPENTLASLHLAGQQGIKWVEIDVMLSGDGIPVIFHDDYLSRTTDGDGLIYKTPLAELKQLDAGSWKGQEYQQETIPTLLEAIEVISQYGMGLNLELKPCEGLEEETIAASVEVLKQHWPQDLPLLFSSFNYFALVSAKALWPEIARGYNVSAIPSAWQERLEHLDCAGLHIHQSFFDVQQVSDIKAAGYKVLAFTINDESLALKLYNQGLDAVFSDYPQKIQSAIDSHIN”, the protein production result is “not failed”. As for “MQSLGSLAKNIKPNQNIVEEEHNLKCERCGNTYDYYKFSNGKEFRHGCDCSMIAAGKEAEQQRKQKYLNRIFNQSNVNASLRDATVNSYQPQNDHQVHAKSTAIEYVKGFSVDKPKSLILQGSYGTGKSHLAYAVAKAIKQQGYSVAFMHIPMLMERIKATYNRNATETTDELVQLLSSIDLLVLDDVGVENTEHTLNKLFSIVDNRVGKNNIFTTNFSDKELNQNMNWQRINSRMKQNARTVRVLGDDFRGRDAW”, the entry is “failed”. For “MQSSAVFPLSPLIPLLQQRRLSLRHHPITAASSSDLNMSPNKPTPYVLSAIVPIVGGVALASISEVSFNWAGFSSAMASNLTNQSPNNYIFEF”, the protein production result is “failed”.

Turning to “MQSSNDPPRGAGGGPECAADHRAVPGRTYVETGQGAGYDGPRYDDPWYDALASGWGESAGPAAPGPTVPPMRRSAPAEPPRAAADVYLEVQRSAAFQEVRSRYRRFVVPAVAGFFLWYVAYVVAATSAPALMARPVAGAVNVAMVAGLGQFLTTFLLTWAYARHARLRRDRAALELRWDTQELTRGVRGDAS”, the protein production entry is reported as “failed”. As for “MQTNEHEHVIEVTDLRRVYGGGFEAVRGIDFSVRRGEVFALLGTNGAGKTSTVELLEGLAAPAGGRVRVLGHDPYTERAAVRPRTGVMLQEGGFPSELTVAETARMWAGCVSGARPPAEVLALVGLEAKSGTRVKQLSGGQRRRLDLALALLGDPEVLFLDEPSTGLDAEGRRDTWELVGALRDQGTTVLLTTHYLEEAEHLADRLAIMHDGRIAATGTPAEVTAAQPSHISFELPDGYFVGDLPPLAELGVSDHETDGRTVKLRTRELQRAATGLLVWAAQAAVELRRLDVRSASLEEAFLSIAKQVSARSDGTATDTTEKEYAA”, the protein production entry was “failed”. As for “MQTRLATKQDIDTLATLERQHLNDELISGGFHLEGQAFTRTELTQLVEKHWIVVAEVNGRIIGYVIAGRWSFFETWPIYRNMLQRLNRMNGDGPQLTTQNSCQYGPIWIDNAHRGQGVFEALIAGIYREVAPSFDYMVTFIADENERSLAAHTRKANM”, the entry is “failed”. As for “MQTVKYLARNSGFLFLNGIATNILSFFAMLYIARHLGPEDYGIFSFAFAFIYFFSFIPDMGVHQILVREAAKEPGKAGKLIGNGTIIKFFLSFVAIILAFILINLIGFPSSTKNALYIASLGLLISGTGAYGIIYEAKLRMEYSLLFNLVSRVCLLLFVFLAVAINSTLNTFIFASVSATFVHNLLMVLFSKKLVKVSFNPDITLIKQLLREAIPIAIASVFTVVYFKIDVLMLSFLRGDAEVGFYSAAYRLTDALVFLPSAFTTSTFPLMSRYFKESFNSFSFAYARTFKYLFASGLLIAVLVTFASEKIILIFYGPEYQNSVIALQILIWATAITFISVLISSTCVSSGNQQIISKTAILAALLNVSLNLILIPSTGYIGAAVATVLSVLGSMVFGLIWVHKNLLHENPLKGTISPIIGAGVVSLFIILLEPYADIMFLSAVSVPLFAAVLYTTGWIDSDDKTIFLKLFPASRLNSKKF”, the entry is “failed”. As for “MQVSREFKGIFLASISATFWGISGAVAQTLFDTTDINSIWLTGIRMLGAGIALLLVSLLTHVDLWSIWRQPRDLLQIVAYTLLGLMPVQFTYFLAVEASNAATGTILQFMGPVFIALWMLVAHRQLPTRAEGLAIICALLGSFLLVTHGNPQTLVISVWALIWGLLSGVSSATNTLLPTKLLTKYDPMTVNTWSMLLGGILFNIVQPVWSIHIPLTMLNISKLTFVVLFGTLLAFLFFLQSLQYIRPTVVSLLDAFEPLSATIIAVVLLGVSFGWLDILGSVLIISTVFILAIGQGPNDRTAENFKQP”, the protein production entry is recorded as “failed”. As for “MQYINIANRGVKSLSPYQAGKPIEELERELGISNIVKLASNENPFGFPESAKKAIFEQLDKLTRYPDANGFELKQTIAKKFGVQPNQITLGNGSNDLLELFAHTFATEGDEIMYSQYAFIVYPLVTKAINAIVKEIPAKNWGHDLQGFLTALSDKTKLIYIANPNNPTGNFLTSQEIEDFLAEVPENVIVVLDEAYTEFTRSEERVDSFSLLKKYSNLIISRSLSKAYGLAGLRIGYAVSNPEIADLLNRVRQPFNCNSLALTAAVAVMNDDKFVEKVAENNRIEMRRYEDFCQKNQLDYIPSKGNFITIDFKQPAAPIYDALLREGVIVRPIAGYGMPNHLRISIGLPEENDKFFTALSKVLKFA”, the entry is “not failed”.

Turning to “MQYRIRRENEAPEAKNAGETLWERDIMREVLLSAYRDRRRERMWKNIWRAVSTLILVALIAGIFRKDEAALQLAGNTPHTAVVNLYGKIGNGVEDQVKKLKDGMEAAYKNPQAKAIVIRANSPGGSPVVSNTAFEEIRRLKAQHPGIPVYLVAEDMCASGCYYIAAAADKIYADPSSIVGSIGVIGSSFDATGLMEKIGVKRRVKIAGSNKGMGDPFSPETPEQSKIWEEMLTGIHGEFIKAVKTGRGGRLKFRQYPDVFSGRVYTGADALKVGLVDGLGNIYSVARDVVKAPDVVDYTPKDDFGRILGRRFGAELKASVSEALQAVRLEHHHHHH”, the protein production result is “not failed”. In the case of “MRAAFLIGILAAMGALTQGGSISETVGAGLIDGATITSLAAVAGLLTATGFMAFGIYSGYPVPAAFATTGAMVGVGLSLGGQPVFDTYRRIATFWLLVPPVSGSLAYLTATVLRRDDIPETVGVPLLAGVVGGIVANVQLSIIPSPAGTDQGSLAGFAAMVAGTDIAAVATTLLVAAGSFYYIRRQTQASVDKGIKTFLVVLGSVVAFSSGGSQVGLATGPLENLYRAELGLPGFVLLALGAVGILGGAWMGAPRLLQATSREYAQLGVRRSIAALVPGFIIAQAAIALGIPISFNNIIISGVIGGGLAGGSAGVSRRKIGVTVGFWLITLVTSVVIGFGVYQVLEAALGSQV”, the protein production result is “failed”. As for “MRAMRLVEIGKPLKLEDIPIPKPKGSQVLIKIEAAGVCHSDVHMRQGRFGNLRIVEDLGVKLPVTLGHEIAGRIEEVGDEVVGYSKGDLVAVNPWEGEGNCYYCRIGEEHLCDSPRWLGINYDGAYAEYVLVPHYKYLYKLRRLSAVEAAPLTCSGVTTYRAVRKASLDPSKTLVVIGAGGGLGTMAIQIAKAVSGATIIGVDVREEALEAAKRAGADYVINASSQDPVSEIRRITQGKGADAVIDLNNSEKTLSIYPYVLAKQGKYVMVGLFGADLKYHAPLITLNEVQFIGSLVGNQSDFLGIMSLAEAGKVKPMVTKTMKLEEANEAIDNLENFKAVGRQVLVP”, the entry is “not failed”; as for “MRARRRVMAKREALRAGSKASRQATPNSQPELEGKLFAEQDAGERTHEKLVFVPRVDIYETETGLVVVADLPGVGPEGLEVTLEKRVLSIYGRVKEDTPEGYSQAYREYEVGDFERQFTLSGDFEINGIEANIKDGVLHLAIPRAPEAAAKRIEVRSVS”, “failed”; as for “MRAVIQRVKKSWVEVDGKVVGSINEGLNVFLGVRKGDTEEDIEKLVNKILNLRIFEDERGKFQYSVLDIKGEILVVSQFTLYANVKKGRRPSFEEAEEPKRAKELYEKFVDKIKESGLKVETGIFGAMMDVFIENWGPVTIIIDSREI”, “not failed”.
